Paper PMC2990333

Columns and labels:
[1] = molecular target: 25kD protein (immunoreactive P29 form of Drosophila) (Drosophila melanogaster); assay: not stated; dimerisation of the 25kD protein under in vitro conditions
[2] = molecular target: Aedes aegypti sterol carrier protein-2-like-2 (SCP-2-L2) (Aedes aegypti); assay: crystal structure; ligand-bound X-ray structure at 1.7-angstrom resolution, with bound fatty acid
[3] = molecular target: OBP48 expressed in lepidopteran cells (Anopheles gambiae); assay: co-IP + cross-linking; OBPs expressed in lepidopteran cells, examined for in vitro interactions in the absence of exogenously added ligands; chemical cross-linking

Q: Which stoichiometry N [1] does the source give for “25kD protein (immunoreactive P29 form of Drosophila) (natural protein)” here?
A: 2

Q: With “Aedes aegypti sterol carrier protein-2-like-2 (SCP-2-L2) (natural protein)” as the substance, how does the stoichiometry N [2] read?
A: 2

Q: How did the stoichiometry N [3] turn out when “OBP48 expressed in lepidopteran cells (natural protein)” was run?
A: 2
